Experimental findings from publication PMC10715029, “Interaction and assembly of the DNA replication core proteins of Kaposi’s sarcoma-associated herpesvirus” (Microbiology Spectrum, 2023) are described below.

Details in all cases: partners not purified
Test [1] addresses T1, GAL4-ORF40/41 (Kaposi's sarcoma-associated herpesvirus …, UniProt Q2HR92 1-669).
T1 construct: KSHV ORF40/41, primase-associated factor (PAF); source: 293T, transfected, mammalian two-hybrid fusion
T1 sequence: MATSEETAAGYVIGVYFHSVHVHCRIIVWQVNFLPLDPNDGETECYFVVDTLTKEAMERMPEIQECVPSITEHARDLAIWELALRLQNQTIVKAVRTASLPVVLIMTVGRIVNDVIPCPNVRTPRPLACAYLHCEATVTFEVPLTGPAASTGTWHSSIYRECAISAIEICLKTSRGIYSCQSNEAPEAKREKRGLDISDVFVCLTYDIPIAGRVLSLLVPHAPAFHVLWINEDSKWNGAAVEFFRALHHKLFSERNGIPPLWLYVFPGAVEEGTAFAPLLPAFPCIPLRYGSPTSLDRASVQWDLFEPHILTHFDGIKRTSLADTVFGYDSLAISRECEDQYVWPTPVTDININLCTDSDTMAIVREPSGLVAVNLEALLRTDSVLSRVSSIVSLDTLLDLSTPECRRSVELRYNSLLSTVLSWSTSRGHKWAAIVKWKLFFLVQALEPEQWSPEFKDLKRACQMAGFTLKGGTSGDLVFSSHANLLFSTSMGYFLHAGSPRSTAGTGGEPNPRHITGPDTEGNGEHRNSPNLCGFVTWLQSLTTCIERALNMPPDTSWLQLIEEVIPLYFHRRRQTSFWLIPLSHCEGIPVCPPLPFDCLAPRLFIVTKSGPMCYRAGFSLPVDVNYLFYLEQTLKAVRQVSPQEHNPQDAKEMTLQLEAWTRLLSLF
Kind of test: two-hybrid; mammalian two-hybrid (GAL4/VP16) in 293T cells, pGal4(5×)-Luc reporter, GAL4 and VP16 fusions coexpressed with further FLAG-tagged core replication proteins, luciferase at 24 h, fold activation over empty vector; radicicol (0.25-1 µM) inhibited the activation by GAL4-ORF56, VP16-ORF44 and F-ORF40/41 dose-dependently.

For test [2], the target named is T2, GAL4-ORF56 (Kaposi's sarcoma-associated herpesvirus …, UniProt Q76RG1 1-843).
T2 construct: KSHV ORF56, primase (PRI); also called GALF4-ORF56; source: 293T, transfected, mammalian two-hybrid fusion
T2 sequence: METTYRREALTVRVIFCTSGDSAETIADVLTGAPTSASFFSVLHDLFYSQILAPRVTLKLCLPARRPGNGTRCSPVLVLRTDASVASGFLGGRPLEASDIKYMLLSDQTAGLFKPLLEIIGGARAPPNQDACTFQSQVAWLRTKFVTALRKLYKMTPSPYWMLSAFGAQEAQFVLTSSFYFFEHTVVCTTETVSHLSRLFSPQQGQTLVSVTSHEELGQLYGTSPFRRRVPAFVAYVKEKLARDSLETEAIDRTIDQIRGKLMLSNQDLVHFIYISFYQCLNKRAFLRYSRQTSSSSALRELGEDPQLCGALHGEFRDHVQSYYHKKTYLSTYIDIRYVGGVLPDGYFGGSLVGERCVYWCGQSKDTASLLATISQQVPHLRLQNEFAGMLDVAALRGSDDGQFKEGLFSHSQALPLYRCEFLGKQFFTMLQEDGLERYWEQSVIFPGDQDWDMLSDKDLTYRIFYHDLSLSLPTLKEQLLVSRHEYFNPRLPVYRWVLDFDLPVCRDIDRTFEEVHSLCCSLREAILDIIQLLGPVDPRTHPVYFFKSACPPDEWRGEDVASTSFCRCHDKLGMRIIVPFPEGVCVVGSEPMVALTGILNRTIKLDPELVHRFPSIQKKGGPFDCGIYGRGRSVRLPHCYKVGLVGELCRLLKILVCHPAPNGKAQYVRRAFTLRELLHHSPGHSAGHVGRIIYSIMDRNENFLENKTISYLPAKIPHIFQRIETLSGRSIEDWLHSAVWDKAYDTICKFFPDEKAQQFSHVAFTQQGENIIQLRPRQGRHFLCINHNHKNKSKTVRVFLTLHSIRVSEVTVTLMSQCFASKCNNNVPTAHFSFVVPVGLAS
The test is described as above.

Test [3] addresses T1, GAL4-ORF40/41. Kind of test: two-hybrid; mammalian two-hybrid (GAL4/VP16) in 293T cells, pGal4(5×)-Luc reporter, only the GAL4 and the VP16 fusion coexpressed, luciferase at 24 h, fold activation over empty vector; radicicol (0.25-1 µM) inhibited the activation by GAL4-ORF59 and VP16-ORF9 dose-dependently.

B1: VP16-ORF44 (natural protein)
chain: MDSSEGCTDMDEPSPGFILNMTSDAKVRSVVEQIDRLSNITTSPPEMGWYDLEFDPLEDEGPFLPFSAYVITGTAGAGKSTSVSALHQNLNCLITGATVVAAQNLSRALKSYCPTIYHAFGFKSRHINICQRKVPKVTQSSIEQLQRYELARYWPTVTDIIREFMRKKQKGQYSSLSQSAFRLLCRMGGANLWTSNIIVIDEAGTLSSHILTAVVFFYWFYNSWLDTPLYRNGAVPCIVCVGSPTQTDAFQSVFNHTQQRNEISACDNVLTFLLGKREVADYIRLDENWALFINNKRCTDPQFGHLLKTLEYNLDISPELMDYIDRFVVPKSKILDPLEYAGWTRLFISHQEVKSFLATLHTCLSSNKDAVSTKLFTCPVVCEVFTEPFEEYKRAVGLTHMTPIEWVTKNLFRLSNYSQFADQDMAVVGTYITDASTQITFATKFVKNSYATLTGKTKKCICGFHGSYQRFKSILDGELFIESHSHDNPAYVYSFLSTLLYNAMYSFYAHGVKQGHEEFLRDLRELPVSQELISEMSSEDVLGQEGDTDAFYLTASLPPSPTHAALPTLVAYYSGAKELFCNRLALARRHFGDEFLHSDFSTFTVNIVVRDGVDFVSTSPGLHGLVAYASTIDTYIIQGYTFLPVRFGRPGGQRLSEDLRRKMPSIVVQDSSGFIACLENNVTKMTETLEGGDVFNICCAGDYGISSNLAMTIVKAQGVSLSRVAISFGNHRNIRASLVYVGVSRAIDARYLVMDSNPLKLMDRGDAQSPSSKYIIKALCNPKTTLIY
notes: KSHV ORF44, helicase (HEL); source: 293T, transfected, mammalian two-hybrid fusion
For B1, the “fold reporter activation (F-ORF56 coexpressed)” value in test [1] was at most 60 fold. Besides, the “fold reporter activation (F-ORF40/41 coexpressed)” value in test [2] was at most 55 fold.

B2: VP16-ORF6 (natural protein)
chain: MALKGPQTLEENIGSAAPTGPCGYLYAYVTHNFPIGEASLLGNGYPEAKVFSLPLLHGLTVESDFPLNVKAVHKKIDATTASVKLTSYHREAIVFHNTHLFQPIFQGKGLEKLCRESRELFGFSTFVEQQHKGTLWSPEACPQLPCANEIFMAVIVTEGFKERLYGGKLVPVPSQTTPVHIGEHQAFKIPLYDEDLFGPSRAQELCRFYNPDISRYLHDSIFTGIAQALRVKDVSTVIQASERQFVHDQYKIPKLVQAKDFPQCASRGTDGSTLMVIDSLVAELGMSYGLSFIEGPQDSCEVLNYDTWPIFENCETPDARLRALEVWHAEQALHIGAQLFAANSVLYLTRVAKLPQKNQRGDANMYNSFYLQHGLGYLSEATVKENGASAFKGVPVSALDGSSYTLQHLAYASSFSPHLLARMCYYLQFLPHHKNTNSQSYNVVDYVGTAAPSQMCDLCQGQCPAVCINTLFYRMKDRFPPVLSNVKRDPYVITGTAGTYNDLEILGNFATFREREEEGNPVEDAPKYTYWQLCQNITEKLASMGISEGGDALRTLIVDIPSFVKVFKGIDSTVEAELLKFINCMIKNNYNFRENIKSVHHILQFACNVYWQAPCPVFLTLYYKSLLTVIQDICLTSCMMYEQDNPAVGIVPSEWLKMHFQTMWTNFKGACFDKGAITGGELKIVHQSMFCDLFDTDAAIGGMFAPARMQVRIARAMLMVPKTIKIKNRIIFSNSTGAESIQAGFMKPASQRDSYIVGGPYMKFLNALHKTLFPSTKTSALYLWHKIGQTTKNPILPGVSGEHLTELCNYVKASSQAFEEINVLDLVPDTLTSYAKIKLNSSILRACGQTQFYATTLSCLSPVTQLVPAEEYPHVLGPVGLSSPDEYRVKVAGRSVTIVQSTLKQAVSTNGRLRPIITVPLVVNKYTGSNGNTNVFHCANLGYFSGRGVDRNLRPESVPFKKNNVSSMLRKRHVIMTPLVDRLVKRIVGINSGEFEAEAVKRSVQNVLEDRDNPNLPKTVVLELVKHLGSSCASLTEEDVIYYLGPYAVLGDEVLSLLSTVGQAGVPWTAEGVASVIQDIIDDCELQFVGPEEPCLIQGQSVVEELFPSPGVPSLTVGKKRKIASLLSDLDL
notes: source: 293T, transfected, mammalian two-hybrid fusion
In test [3], B2 had a fold reporter activation of 56 fold.

B3: VP16-ORF40/41 (natural protein)
chain: T1 sequence
notes: KSHV ORF40/41, primase-associated factor (PAF); source: 293T, transfected, mammalian two-hybrid fusion
With B3, the “fold reporter activation (F-ORF44 coexpressed)” value in test [2] is at most 280 fold.
